Laboratory results from patent publication KR20220059888A (dated 2022).

Key:
마우스 Tie2 단백질 = biological target: T1, 마우스 Tie2 단백질 (마우스 (mouse), UniProt Q02858 23-1122); assay: flow cytometry; HEK293T cells transfected with mouse Tie2
T1 construct: whole, on cells; also called 다른 종 유래의 Tie2 단백질

랫 Tie2 단백질 = biological target: T2, 랫 Tie2 단백질 (랫 (rat), UniProt A0ABK0L6J5 19-1116); assay: flow cytometry; HEK293T cells transfected with rat Tie2
T2 construct: whole, on cells; also called 다른 종 유래의 Tie2 단백질

개 Tie2 단백질 = biological target: T3, 개 Tie2 단백질 (개 (dog), UniProt A0A8I3S0B4 27-1128); assay: flow cytometry; HEK293T cells transfected with dog Tie2
T3 construct: whole, on cells; also called 다른 종 유래의 Tie2 단백질

T1 sequence (Q02858 23-1122): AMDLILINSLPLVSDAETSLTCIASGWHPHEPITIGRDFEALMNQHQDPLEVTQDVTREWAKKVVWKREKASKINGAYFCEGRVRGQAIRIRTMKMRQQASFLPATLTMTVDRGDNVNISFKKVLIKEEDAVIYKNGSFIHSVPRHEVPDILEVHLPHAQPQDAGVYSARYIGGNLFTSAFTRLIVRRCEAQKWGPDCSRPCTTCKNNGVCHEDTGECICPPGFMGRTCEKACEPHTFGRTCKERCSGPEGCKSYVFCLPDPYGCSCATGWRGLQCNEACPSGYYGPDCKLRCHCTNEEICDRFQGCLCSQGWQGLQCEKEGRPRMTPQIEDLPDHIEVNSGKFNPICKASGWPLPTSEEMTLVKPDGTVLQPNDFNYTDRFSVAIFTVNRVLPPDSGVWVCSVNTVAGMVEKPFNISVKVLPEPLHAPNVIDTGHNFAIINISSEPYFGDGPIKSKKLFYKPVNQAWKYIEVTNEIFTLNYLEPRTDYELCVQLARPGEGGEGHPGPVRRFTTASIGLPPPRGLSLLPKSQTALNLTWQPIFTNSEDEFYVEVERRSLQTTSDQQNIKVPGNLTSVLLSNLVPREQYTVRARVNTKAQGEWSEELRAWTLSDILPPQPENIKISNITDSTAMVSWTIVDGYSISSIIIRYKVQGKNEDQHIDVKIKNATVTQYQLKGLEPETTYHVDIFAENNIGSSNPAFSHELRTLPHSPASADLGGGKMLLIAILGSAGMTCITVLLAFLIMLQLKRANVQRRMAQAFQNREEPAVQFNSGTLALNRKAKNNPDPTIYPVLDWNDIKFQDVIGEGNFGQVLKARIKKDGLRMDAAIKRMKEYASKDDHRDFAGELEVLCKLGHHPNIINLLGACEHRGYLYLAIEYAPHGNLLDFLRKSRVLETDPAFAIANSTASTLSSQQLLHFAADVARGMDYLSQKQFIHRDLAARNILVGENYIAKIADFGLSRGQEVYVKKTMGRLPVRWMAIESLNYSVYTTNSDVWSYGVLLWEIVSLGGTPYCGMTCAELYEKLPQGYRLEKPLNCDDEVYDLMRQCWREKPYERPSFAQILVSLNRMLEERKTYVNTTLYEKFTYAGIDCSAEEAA

B1: Ang1mab2-1 (antibody, human IgG1, kappa, V domains shown)
VH: QVQLVESGGGVVQPGRSLRLSCAASGFTFSSYAMHWVRQAPGKGLEWVAVISYDGSNKYYADSVKGRFTISRDNSKNTLYLQMNSLRAEDTAVYYCARQYSGVFEYWGQGTLITVSS
VL: DIQMTQSPDSLAVSLGERATINCKSSQSVLYRSNNRNYLAWYQQKLGQPPQLLIYWASTRESGVPDRFSGSGSGADFTLTISSLQAEDVAVYYCQQYFSIPYTFGQGTKLEIKR
notes: also called 제2 기본 항체
**Q.** Does B1 bind (마우스 Tie2 단백질)?
**A.** no binding (tested: 5-g/ml (so in the source))

**Q.** Does B1 bind (랫 Tie2 단백질)?
**A.** no binding (tested: 5-g/ml (so in the source))

**Q.** Does B1 bind (개 Tie2 단백질)?
**A.** no binding (tested: 5-g/ml (so in the source))
